{
  "source": "paper PMC11263360",
  "about": "“The structural basis of the activation and inhibition of DSR2 NADase by phage proteins” (Nature Communications, 2024)",
  "binders": {"B1": {"name": "tail tube protein (TTP) from SPR phage (natural protein, UniProt A0AAE9G628 1-264, looked up)", "chain": "MKTVIQDTADVYFKRKSDGKLVFTAEAQTASFSQAISEEKLRGGIGNKPLYILKSEKEINLTVKNAFFDLEWLAMTQGETIQEETKVKVFDREHGLIVDDTNKVTLKGKPVSDVTFYNKKGLTYKIAVSTDGTYTIPTAFAAAKDKLTAVYQIEKVGRRLAIKASKFSERYEVEYRTIAYNPDTEEVYSDIYIQFPNVSPSGEFEMSLENGNALAPEIKFEALADTDTDEMAVVIEASRDENTAAPVEDTTGSTQSSDLGGTTE", "notes": "tail tube protein (TTP), SPR phage, WP_010328117, full length; Residues 80-167 have no density in the cryo-EM map; source: E. coli BL21 (DE3), purified (Ni-NTA, size exclusion)"}, "B2": {"name": "DSR2 from Bacillus subtilis 29 R, wild type (enzyme, UniProt P0DXN8 1-1005, looked up)", "chain": "MVKVDLESKRYGEKLKEVFLMLDNNVVECIKEITESSRNGKLVFFVGAGVSTLSDYPQWWRLVDKYHEELYGSPKKGNYSSDEYLRIPQIFYNVKGEMAFDGILKDFFQVDKPTNPIHDKILAMNPAHVITTNYDNLIDTACWKRGKYFSVISAEEDVANATSSRYLLKVHGDFRKGFKGENVVLKEDDYLNYDQNYPLISNLMKTIIATHTIVFIGYGLGDYNINMLLNWVRKLQKDSFHKPFFIRTDPSPIENETLIYYENKGLRIIDAASLIDSNEYDYLERYSAVMDLLIESQENKFITKDDEVIDYIYGKISPLFALQYIRKIDLKHVFEYDYHFEVNGTVVRHKNKGFGYMERFFELKESCDERSKLSKKQYERFNALFNFFEKNGVICMAKDAGTLNTSIEINSLAYHGKYDVMKKFIEEQSVSIEDDYKKAFFLACLGRWEESYDLYSNIILNSIDESNGCVYYLSQINRYRIYQSITQAVTQFNGLGLLTFGRHYKPFTDEFLARIEREMTNFNIDDLFNGMPFEFQKKYKILEFLSDNQFLYDDTVKLFELTNKVRSEMSEGSYSFGMSSDIVVLLRLYDNLRFLYENCLWSVSFHEFHQYIRNSMSLLIEKAEYERTRDIDELGFSFFGKKSGFFMEYYDFVNISRHFKIDDIKNLERSCSIDKIRFGEQEKIEEYLVGIAEEITKQFSANGMNVVFYTQFISEAKAALYFAKYVKLSEEGLGKIVKALLFYFPERDLDIGKRYVWLERLTKCNELPKSIISIIDDFLVLQAEKHIDQNYSEVSSNGLYSRDYGALIKHFEKNFISKRLSEITLCLTQDKQKQIDFLFKLLPLLSTNAKSHLLSFKSVENINDLMNGIRIGLIDEFTPEHEELIIEYLETRKVNYIVEKEKGIQTFSSNDYMSTFGIWYFLEEINNSKMEEFIGMDDQYDFFVDPENFDYKKFIPSWLKNYNDKLLGKIAGNKHMKHHVIEVLKERVKNSNDKRYLEILMNYFI", "notes": "DSR2, Sir2 domain-containing NADase, Bacillus subtilis 29 R, WP_029317421, full length (domains described over residues 1-1005); Cloned into pRSF-32M or pET-32M.3C (both add N-terminal thioredoxin and 6xHis); Crosslinked with BS3 for part of the cryo-EM data; also called WT DSR2; wild-type (WT) DSR2; source: E. coli BL21 (DE3), purified (Ni-NTA, size exclusion); for the DSR2-DSAD1 complex …"}, "B3": {"name": "DSR2 (H171A) catalytically inactive mutant (enzyme, Bacillus subtilis 29 R, UniProt P0DXN8 1-1005, looked up)", "chain": "B2 chain with H171A", "notes": "DSR2, Bacillus subtilis 29 R, WP_029317421, full length, with H171A; Crosslinked with 1 mM BS3 before cryo-EM; source: E. coli BL21 (DE3), purified (Ni-NTA, size exclusion)"}, "B4": {"name": "DSR2 Y260E mutant (enzyme, Bacillus subtilis 29 R, UniProt P0DXN8 1-1005, looked up)", "chain": "B2 chain with Y260E", "notes": "DSR2, Bacillus subtilis 29 R, WP_029317421, full length, with Y260E; AUC mass 215 kDa against 425 kDa for the wild type; source: E. coli BL21 (DE3), purified"}, "B5": {"name": "DSAD1 from SPbeta phage (co-expressed with DSR2) (natural protein, UniProt Q796A8 1-120, looked up)", "chain": "MIEIFKDTGATHDLVYHSKINTFVWDVEFDIVLSDSKELNKCYFVKCFNPYRINGKCDFAVSSIDIFSEGKRLLIENEFNFKITKAVHVATSKDVTEIVLHLSERISSPFPIVKEVVYLD", "notes": "DSAD1, SPbeta phage, WP_004399562, full length; source: E. coli BL21 (DE3), co-expressed with DSR2, complex co-purified (as apo DSR2: Ni-NTA, size exclusion)"}},
  "key": {"[1]": {"molecular_target": "B3", "test": "cryo-EM structure; purified DSR2 (H171A)-TTP complex, crosslinked with 1 mM BS3, with 1 mM NAD+; 20 mM HEPES pH 7.5, 100 mM NaCl, 0.5 mM TCEP", "details": "both partners purified"}, "[2]": {"molecular_target": "the molecule itself", "test": "cryo-EM structure; DSR2-DSAD1 complex co-expressed in E. coli and co-purified; uncrosslinked and BS3-crosslinked samples"}, "[3]": {"molecular_target": "the molecule itself", "test": "cryo-EM structure; DSR2 (H171A) alone, crosslinked with 1 mM BS3 in the presence of NAD+; 20 mM HEPES pH 7.5, 100 mM NaCl, 0.5 mM TCEP"}, "[4]": {"molecular_target": "the molecule itself", "test": "AUC; sedimentation velocity, 12 °C, 0.8 mg/ml, 20 mM Tris-HCl pH 7.5, 100 mM NaCl, 1 mM DTT; SEDFIT"}, "[5]": {"molecular_target": "B2", "test": "cryo-EM structure; DSR2-DSAD1 complex co-expressed in E. coli and co-purified; uncrosslinked and BS3-crosslinked samples", "details": "both partners purified"}},
  "note": "Where a chain is given by its changes, count along the chain named. Numbers in names are those of the source.",
  "data": [
    {"binder": "B1", "values": [
      {"measurement": "stoichiometry N", "setting": "[1]", "result": "0.5 TTP per DSR2 (2:4)"}
    ]},
    {"binder": "B2", "values": [
      {"measurement": "stoichiometry N", "setting": "[2]", "result": 4}
    ]},
    {"binder": "B3", "values": [
      {"measurement": "stoichiometry N", "setting": "[3]", "result": 4}
    ]},
    {"binder": "B4", "values": [
      {"measurement": "binding result", "setting": "[4]", "result": "binds"}
    ]},
    {"binder": "B5", "values": [
      {"measurement": "stoichiometry N", "setting": "[5]", "result": "0.5 DSAD1 per DSR2 (2:4)"}
    ]}
  ]
}
